This series can be described thus: soluble fraction after stress (log2 fold change); higher = more stays soluble; pooled small domains, quantitative proteomics. The settings on record: stress: 75 degC.
Take “HMVPVQLTPRELQVARLAAHGASSPEIAAELRVSRRTVDNQLGRVYAKLGIAGRAELAAALSRLPVSV”: the “soluble fraction (log2)” value is -1.07.
For the sequence “HMVPVSIYAYNKIKTAILNNELMPGEKLVEASLAETLNMSRTPIREALRQLEQEGFVTYYPQKGSIVSH”, the “soluble fraction (log2)” value was -1.25.
Take “HMVQAQGARIREARVQRGLSQAQLGEPRYSGSYISHIENGRRSPGTDVLAFIAARLGLEPGALDS”: the “soluble fraction (log2)” value was -0.978.
In the case of “HMVQIFIPVVHDDHWFLIVFSREEDTFYVLDSLPSLSRISTINGIISTLKEHLQQASVGPQYSVKVLPVK”, the “soluble fraction (log2)” value was determined as 0.226.
As for “HMVQLAEGERYRRIQEANDFINRQQWPGKAAMGRLKDTEKAQYNLWLDYLDALEAVDTSSAPKINWPVPPE”, the figure is 0.2.
The same measure for “HMVQQAVNMAKPGKLFTGPSPTSKALRDLDAGAMLYPTGEKQGPFWKVQDELGNEGWVAMGLLQLA”: -0.0352.
In the case of “HMVQVDNELTEFSVQSITRGIDALGEVTIRVTAPDGGVYTGRGADNDIIVSSTKAYLNALNRLLNDK”, the “soluble fraction (log2)” value worked out at 0.0321.
In the case of “HMVQYVDFVKRMIEELPWWHRRMLELKYLDGLTYEEIADELQVPVGTVKGTLHRAKELFQEILKNN”, the “soluble fraction (log2)” value is -3.29.
Take “HMVRDPYELLEVPREATPDEIKSAFRKLAARHHPDRNPDDPGAQERFKEINAAYQLLSDPQKRAMFDRFGA”: the “soluble fraction (log2)” value amounted to 0.159.
In the case of “HMVRKIQAKLVLRLHAQGLSGRAIARSQGMSRRSVSDVLDAARAVGVGWDDVTGKTDGEVYALLFPGRG”, the “soluble fraction (log2)” value was -2.66.
As for “HMVRKIRARLVLQLRAEGLSGRAIAGSQGMSRKSVTAVLDAADRAGIGWDEIAERSEGEVYALLFPGRG”, the figure is -1.46; as for “HMVRQKYKSNFITVGDKSLTIHDWAQRLNLSQYALRNRYKEFGKEWVEKAIKTILETGDNTHIYK”, -1.46; as for “HMVRSLADQVYERLRRNIVSGDLAPNARIVELDIAAQMGTSQGPVREALQRLEREGLVQRRAHSATFVTD”, -0.554.
As for “HMVRVSELAIEPRLVVEETATGFVGAVVRYANGLIELEDRHGAVRTFPLGPGYLVDGRPVSLVKPT”, the figure is -0.577; as for “HMVSEDELLARIALLPYPQAKILLEERLSHDPANAKVRQLYLELAKKSGDHTEVTRHNSLLY”, -0.347; as for “HMVSKIEAPLPGIILSVDVKEGDTVKAGDKLMVMEAMKMENAILAETNGVVKSIKVKIQDSVLQGDILAEI”, -0.55.
Consider “HMVSKSDVQRALEKVEPVLRKLGGSTVEKVRVMARQATLVFEMLKSWWKGEIDLPWKTVAAMTVTLLYL”, for which the “soluble fraction (log2)” value was -0.451.
Regarding “HMVSLNKTEFIAVKKASASELRDKINSLGLDVLKDATISADARTNQIIATGPKYALEQIKMLVVGLDVSS”, the “soluble fraction (log2)” value was -1.4.
The same measure for “HMVSLRQQVYDYLRSQMNQGELRPGSAINLGEMSSRFGISRTPLREALLQLETEGFVTIYPRKGIIVN”: -1.63.
As for “HMVSLTGEWRPSKDALDILITKGGINPNFIDDAVPEFILYWRDRGDVSNTWDSKFIQHVRRQWQFYTGI”, the figure is -2.87; as for “HMVSMSFDDYVNDAKEYESEGDKDKAYNSYLEAYKLNKSSEEVLDYLIDNTEDVTLKLNYVYEYLDL”, 0.00966.
The same measure for “HMVSNFEAEFGRHFAIFFPGSEFTELKLRLLEEGAELIDPIRDTPFERFFFKDPNGYIFEVIDKE”: -2.81; for “HMVSNRMVYSDFQQKWINNQVESINVNADKMTIEVTTQDEKKYTVYAPSSMIEFLNEQYPKDDIKIEYVAP”: 0.153; for “HMVSPLEKSQSFGSFEISREFARTLGLTSARNWENWAASDSRPINIPYSPNVFYKNKGWIDWSDWLGTE”: -0.279.
Consider “HMVSRQINVIPDDLAGLRLDQALAHLFPQHSRSRLKEWLLEDIIIVQGGPKRPKDIVSGGEIVEIKL”, for which the “soluble fraction (log2)” value is -0.165.
The same measure for “HMVSYTLPTLHTGKNWYVDFTAYDPAEQKMKRKKYMLDGISKITERRKRAVDIIATVTARLRSGWNPWA”: -2.76; for “HMVTARMPDLFGLDEATAQRMVSNAGLTLKTEYAYSDQAEGYVFDQTPEANAEVRRGGTVTAMIS”: 0.069.
For “HMVTEIDYGAFIKMTEEGNIGEVKIEDNQIVFTDKENKAIYKTGIMPDSDLTQRLYDSGAVFA”, the “soluble fraction (log2)” value stood at 0.128.
Consider “HMVTEKPLYRDELMDHDTVWVEPISMDSHLRMELRGWYHVKNRFVENEVGQRFYFDFYDIKWLAFTNGP”, for which the “soluble fraction (log2)” value is -5.45.
The same measure for “HMVTINTASLEKAIADAKAVVKESYTTDSYNAMKAVLDEAEDLLKEEAQDQDTIDAKTEALNAAIEALVKR”: 0.166; for “HMVTLPLLKRGHTGLPVKALQTLLVLRGMSVDVDGSFGEKTESAVRTFQTAAKILSDGEVGKDTWKALI”: -1.56.
As for “HMVTPPMVVVDVQGEVKTPGVYHLPTNSRVNDAIKAAGGPKQSADLSYINQARMVKDGEQIYVEKKL”, the figure is 0.0962.
For “HMVTTDPIADMLTRIRNASSQKHKSVDVPASKEKLAIAQILFEEGYIKSFEEIKEENNQGVIRITLKYTEK”, the “soluble fraction (log2)” value is -0.733.
Consider “HMVTVPNYSDPRQYVEWGNANGITINRAVGDTIASMSGRVQDVRDSNGNSVIGKKVKKGSTVTVYIYFLK”, for which the “soluble fraction (log2)” value is -1.08.
The same measure for “HMVTVSAVNITPKGHTTVGFTDRSVNPPSNYYLRVGESADGWTVKDADFDDEIATLEKDGVAITLKL”: -0.228.
With “HMVTYELTEDEKFIVSLLEKENSQPIGALKDKSALSGKKWDAAMKGLAKHGLTKVVVDGDNKLVVL”, the “soluble fraction (log2)” value is -0.0322.
The same measure for “HMVVEDDTVLQAVKQAIEENPEAVSDYFEGKSKALNFLVGQVMRITRGKADPAKTNQMVVEELKNR”: 0.237.
As for “HMVVMKGKVKWFNKNKGYGFIITDDNKEYFVHWKSIVTNSPRELKVLEQDELVTFDLMETDKGIQAINII”, the figure is -2.19; as for “HMVVPELNLAQQDVLRALRQRGRATADHLSVDTHRPVSEVMGILLGLEIAEVLYRVEGGWFVPKTAR”, -2.39; as for “HMVVSDKIAFSSFLKSVEDGRVVEVEITGNDIRGILSDGTVFNTYAPNDPNLVEKLTSKGVNITALPKE”, 0.522.
For the sequence “HMVVYQRVHDEILQALKDNVYPVGTLLPPEPELERIYSVSRTTVRRAIAKLSEEGYVQVRQGYGTMVLKN”, the “soluble fraction (log2)” value is -3.48.
As for “HMWGAYHDGQVVKFPKKVTVYVIDGQYKRPLANEFVLKFLNYKTSDIIIDKDGNLNNYKNGAVVEH”, the figure is -2.79.
The same measure for “HMWMQKILGNYIAARRKELGMTQANLAEKIHVTDKAVSRWERGVGLPDIENLEALAKALEVSLVSLMQGKT”: -2.36.
Regarding “HMWNGIVDAGKARQHLMNLSQLGVGRRAVAAASDVAETVLMDIRSGTKTRIRARTERQILAVTPEMA”, the “soluble fraction (log2)” value is -2.42.
In the case of “HMWNTADDIKEAIWKLIQSEDPKKPYSDLKISQLLLEKEMKISRRTVAKYRKEMGILGTYSRK”, the “soluble fraction (log2)” value was -0.603.
With “HMWQPIKLDRGDWQNSLQVGDRVFVRGIPRPVEILSAVDEENNIEVLMGTMRAKIPVYQLDKPAENFIDTT”, the “soluble fraction (log2)” value was -0.362.
The same measure for “HMWQVVEVDYGTFMSMTEDGQVGRVEIQEQENLILFTDQEETTVYKTAMVDDPDLTARLHDAGIPFYGQE”: -1.06; for “HMWSGEPFLDELRHADTLLETDPEAALAEYRALADKGSAAAMMALGNAYASGSHVARDEGEAEHWYRRAA”: 0.0377.
As for “HMWSLLVILQLREGGQRFSQLQRAIPDISQRMLTQTLRKLERDGLVSRKVTPSTPPRVDYAITELGH”, the figure is -0.841; as for “HMWSQEPEYRPLYNSMDGFDAGQVVEMLQQSRIDYKVEPNSGALLVRSEDLADARLRLASAGISP”, 0.0488; as for “HMYAEVTITIEKGMTSDSVSKLLYKAGIVDDAKEFNNYIIKAGKSTKILIGEFTIQKGASYDDIIKIIA”, -3.51.
Take “HMYAGTVTQVKNNKVMLEFDGETVNVGDQFFILNSDGKKVAIVEITAAKNKKALANVLKGKAVVDGTTQAK”: the “soluble fraction (log2)” value was -0.476.
As for “HMYAVDTIHKGTITEMTDKGAVVSLGDNIDGFAPARQLVKEDGTTLKLGDTADFKVIEFSKATKRITLSH”, the figure is 0.58; as for “HMYAVQKGDTLKKIADQFGISVDTIKWANDMKGDALSIDQELKIP”, 0.414.
Take “HMYDAEAINKFFDIENWDFGETFYFQELSAYIMNQLSPKLVTILIVPRQTTQAFGSLFEIKSEPDEIFAS”: the “soluble fraction (log2)” value was 0.172.
The same measure for “HMYDDEELDVLAHRPIESYTDAELAMLREVAETLLETDYEGWLKSLSMRGILLPPEILQLVT”: -0.269; for “HMYDDLEPFDANGRLRWSDKELILAFGRHRGVTLQTLELNDPGYLRWLLSGNGPLEQQDRKRLEDILES”: -1.45; for “HMYDEKTLRKAVLDYVRDNDDGRLDLMKIDSYLTSRYGNIDYAALGYNRLSMFISSFPELRRNSNYVTLRK”: -1.44.
As for “HMYEDNERNLYSVVINFLNEHKIKISREAINLVINRSSGDKHNLKQELNKILNYSFSNKNITYETIEKLSN”, the figure is -1.83; as for “HMYEDNERSLVPIVQNFLKEKKILLSNQSINLIVQRSGGDRINLYNELQKIESFSKNQKKIDIGDIIKLTN”, -1.03; as for “HMYEDSNQSLNFFAIKFIKEKNIKISQETTNLIVERARGDRGNLINELQKLEALSLTRKKITQEDVFNLTN”, -1.99.
The same measure for “HMYEGLILINKYDSLVSAKLETNKIKSLGLFFEDMEEKIAVFSGPFKNNDINLKLDFLIRNGYLDAKIY”: -4.87; for “HMYEIEDIKEKLLDLLANSKTGFSGLEISNRLGINRITVSKYLNIFSAEGLIKQKNIGNVIIWFVEDGIE”: -0.509; for “HMYEVDGLGIRIAQLRKKQDLTQEAFARTLGVSPQAVSKWETGIGYPDITLLPQIAKELGVSIDQLFGRN”: -0.307.
“HMYFGDADGNKKVDAADALYLKRHLADWEDYRELPQKTNVSWMDEASPANLMILERHIAGWKDYEMLPYT”: the “soluble fraction (log2)” value was -0.425.
As for “HMYFMDEETWESKKTLLNDWYEANPEYADRRAISDGLFKIGDLQPDFRRRHWGSIGVIFADIPNSPMG”, the figure is -0.502; as for “HMYGHKLDSYESYVVSELRRWPFLSAPQIHDRLKEHFSDLPLVTPKTVFNFVNRLRLTHSLPKE”, -3.38; as for “HMYGLSFLIGFTVVDRTYGDIGKVTAIDDSTVNTLMAVGDRLIPAQEAFITKIDNTKKIIYTQLPEGLL”, -1.17.
“HMYGTQTVNRGAVQPGMLVKHKDSTWTASANARGRLYLHRGVEMTYTRDLLVEVYLNGLGNGL”: the “soluble fraction (log2)” value was determined as 0.158.
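Further: 20 min heating vs room temperature control held 20 min.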
